Test system: K4 kissing-loop RNA reporter
Assay: apparent KD of K4 kissing-loop reporter; higher = weaker reporter binding
Conditions: Eterna round: R107
Protocol: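 RNA-MaP round R107: designed RNA switches with theophylline, tryptophan, arginine or FMN aptamers are transcribed on-chip within common flanks. They are titrated with a labelled K4 kissing-loop RNA reporter in RNA-MaP buffer (100 mM Tris pH 7.5, 80 mM KCl, 4 mM MgCl2), without ligand or with the indicated ligand. Median apparent KD per design.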

[1] = input ligand: theophylline 20 uM
[2] = input ligand: tryptophan 2.4 mM
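Further: bound reporter read as fluorescence of individual clusters on recovered sequencing chips by microscopy, with normalized cluster intensities fitted with a binding model.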

| Sequence | apparent KD of K4 kissing-loop reporter (input ligand: FMN 200 uM) [µM] | apparent KD of K4 kissing-loop reporter (input ligand: arginine 13.2 mM) [µM] | apparent KD of K4 kissing-loop reporter (input ligand: none) [µM] | apparent KD of K4 kissing-loop reporter [1] [µM] | apparent KD of K4 kissing-loop reporter [2] [µM] |
| --- | --- | --- | --- | --- | --- |
| GGAUCCACCAGUGAUGUUGGAGAAAACUCCAAGGAUAUGACGAAAGUCAGAAGGUGGUAGACUGGACAAAGUCCGGUGGGAUCCA [FmnA10 G78] | 0.661 | 0.141 | 0.392 | 0.438 | 0.0887 |
| AGCAUUUUCAGAAGGAGCGUGAAUUAUUCUUAAGUAUAUUAUACGAGUGAUGUUCGUAUUUCACAGGUAGGUCGCUGAUAUAGCA [JR_SSArginiB_Sub003] | 0.0574 | 0.0892 | 0.0546 | 0.0762 | 0.0468 |
| AAAAUAAAUCAGUGAUGUUGGUAUCUGGAUACCAGCGAUAAUCAUCGCCCUUGGCAGCCAUGGACGUACAAAAUAAGUACGUCCU [MatMod 17 - Jieux - Same State - Theophylline A] | 0.242 | 0.157 | 0.18 | 0.228 | 0.193 |
| GGCAUAUGGGCAGGAUAUAGGCAGGUAGAGUGAUGUUCUUUCUGAAUAAUUCCAUCCUUCUACCUACUAGAAGGGCCCAUAUGCC | 0.0565 | 0.106 | 0.0687 | 0.11 | 0.0679 |
| GGCUUACUAGUGAUGUUAGUAUUUUCUGAAGGAGCGCGUGAAAACGCAGGUAGGUCGCAGAACCUUGCCAACUAUUUUAGUUGCC [Ex Arginine A K4 28] | 0.144 | 0.157 | 0.115 | 0.136 | 0.104 |
| GUGCAGUGAUGUUGCACGAGGAAAGACGAUACCAGCCGUAAAUAAGGCCCUUGGCAGCGUGGGCUAGCAUAAAGCAUGCUAGUCU [Edbemavela] | 0.126 | 0.0977 | 0.113 | 0.111 | 0.0996 |
| AAUAAAAUCACGGCCGCCACUGAUUAUUUUAUUAGGAGUGAUGUUCCUAUGACAGUAUGCCUUAACAGGACCGGGUGAAUAUUUA [#19 K4 Tryptophan B Exclusion] | 0.122 | 0.125 | 0.144 | 0.143 | 0.156 |
| UUUAUUUUCUGAGGAUAUCGUUUUACUGAAGUGAUGUUUCAGUAUUUUCAUAUUAUAUAUAAUUUUCGAGAAGGCAGUAUUAUUA [JR_Nu_SSFMNB_Sub027] | 0.0835 | 0.0604 | 0.0637 | 0.0722 | 0.0643 |
| CUUGGAAGGACGGCCGCCACUCGACAGUGAUGUUGUCCGAGUUGGUAACGCAGUGAUGUUGUGUCGAGGACCGGGUCCUAGGAAU [Exclusion Tryptophan B GF 26] | 0.199 | 0.149 | 0.185 | 0.174 | 0.147 |
| AUAUAUAACUGAAGGAGCGAGGCCAAAUAUAUAUAGUGAUGUUAUAUAAAGGCACAUAGGCCUCAGGUAGGUCGCAGAAUAAUAU [AstrosExyArGB#1] | 0.284 | 0.274 | 0.277 | 0.271 | 0.281 |
| AAGCAGUCACUCGACGCCAUCGAAGAUGGGCGAGGACCGGUACGGCCGCCACUCGGAGUGAUGUUCUGAUGACUGCAAAAUAAAA [MatMod 8 - Jieux - Exclusion - Tryptophan A] | 0.119 | 0.0527 | 0.118 | 0.156 | 0.0943 |
| GGGAGGAGUGGUGUUGAUUAGGGAGCGGAAGGAGCGCCGAGGAAGGCAGGUAGGUCGCCGGAUUAUAGUGAUGUUAUGAAGAGGG [ExArg.J] | 0.663 | 0.716 | 0.679 | 1.01 | 0.577 |
| UUUCCAGUGAUGUUGGAGAAAACCGAGGAAGGAGCGGACUCUUGUCCAGGUAGGUCGCCUCGUCUCCCAUUGGCAGAGCGGACCC [Enlaonbian] | 0.232 | 0.239 | 0.249 | 0.574 | 0.211 |
| AGAGAUAUAUGAGGAUAUGAGAUAGUUAAUGAGUGAGUUUUAGUGUUGUUUGGUUAGUGAUGUUAUUUAGAAGGCGUGAGUGAUG [grrfullin] | 0.0977 | 0.0665 | 0.0702 | 0.08 | 0.0657 |
| GCAGUGAUGUUGCGGAUGUACAGUGGCGUGCGAGGACCGGUACGGCCGCCACUCGUACAGACCAAGCUAAUACAUCGAUAGGUGA [whbob_SS_Tryp_A_m3] | 0.344 | 0.247 | 0.353 | 0.287 | 0.218 |
| UUUUUGGAGAAUUAUAGUGAUGUUAUGAAGGAGGAUAUCUAAAGAUGGAGAAGGUUUAAUAGUUAAGGGAUGGAGGGUGGGUGGG [ExFMNA.Q] | 0.372 | 0.18 | 0.32 | 0.208 | 0.229 |
| ACGCGCGAGACGGCCGCCACUAUACGUCGAGUGAUGUUCGAGCCAAGAUGUCGUUACGUUUAUAAUAGGACCGGGUCAAUGGAUU [theeternabot_sameState_KL_Trp_B_19] | 0.596 | 0.512 | 0.583 | 0.661 | 0.513 |
| GGAUAGGACAUAGGAUAUGGGCUAGGCAAGAAUAACUUGUCUAGCAAAUCCAUGAGGAGUGAUGUUCCAGAAGGAUGUCCUAUCG [FmnBX 1 U11+A75] | 0.566 | 0.108 | 0.112 | 0.123 | 0.0845 |
| UUCCGGGCCGAAGGAUAUUGGAGUGAUGUUUCAAGACGUUCGUCCCAGCCCAUAGUAACUAUCGCCCAAGAAGGUCGUAUUGAAU [theeternabot_exclusion_KL_FMN_B_13] | 0.227 | 0.177 | 0.243 | 0.189 | 0.157 |
| GUAUUGUGAAUGGAUACCAGACACCCGAGUGAUGUUCGGAGCAGAGUGAUGUUCUAAUAAGUCCCUUGGCAGCCGGAAGCAGCCG [Same State Theophylline B GF 3] | 0.223 | 0.296 | 0.34 | 0.392 | 0.242 |
| GCCGUAGAUUGAAGGAGCGGUGAAUGCAGGUGAGUCCUUUAGAUGUUUAGUGAUGUUAAACACCAGGUAGGUCGCAAUCUACGGC | 0.235 | 0.178 | 0.203 | 0.2 | 0.192 |
| UGACUGGACUGAAGGAGCGCGCGAGACAAAGUCUCGAACUGGUAGUGAUGUUAUCAAAUAACGCAGGUAGGUCGCAGUCUAGUCU [ArgBS 12 #SwitchBubble #StaticStem] | 0.251 | 0.167 | 0.255 | 0.193 | 0.188 |

| Sequence | apparent KD of K4 kissing-loop reporter (input ligand: FMN 200 uM) [µM] | apparent KD of K4 kissing-loop reporter (input ligand: arginine 13.2 mM) [µM] | apparent KD of K4 kissing-loop reporter (input ligand: none) [µM] | apparent KD of K4 kissing-loop reporter [1] [µM] | apparent KD of K4 kissing-loop reporter [2] [µM] |
| --- | --- | --- | --- | --- | --- |
| AAACAUUGGUCGGAUACCAGUUAGACCGAUAGGUCAAAACUGGAGUGAUGUUCCUAAAAUAACCCUUGGCAGCCGACCGAUGAAA [MAT - Same State Theophlline B - Mod of Eli - D5] | 0.954 | 0.599 | 0.787 | 0.905 | 0.808 |
| GCGCGUCAUGUCAGCGGUGACUAUGUCGAUACCAGCGCCGCAAGGCGCCCUUGGCAGCGACGCGCUGGAGUGAUGUUCCGACGGC [#2 Exclusion - Theophylline A Attempt #9 (HarryS)] | 0.144 | 0.153 | 0.148 | 0.159 | 0.129 |
| AAACAUUGGUCUGAUACCAGUUAGACCGAUAGGUCAAAACUGGAGUGAUGUUCCUAAAAUAACCCUUGGCAGCAGACCGAUGAAA [MAT - Same State Theophlline B - Mod of Eli - D4] | 3.64 | 0.285 | 0.596 | 0.439 | 0.552 |
| CAGCCUGGUCAGUGAUGUUGGCCGCAGGGAAAGGAUAUUGUGUUGGCAAGAAGGUUCGCUUGAUCGUUGGCCCAUGCAUGGGCCU [theeternabot_sameState_KL_FMN_A_44] | 0.186 | 0.18 | 0.197 | 0.28 | 0.183 |
| CCAUCGCUAUUCGAUACCAGCUACUUAGUGAUGUUAAGUUAAAAUCCAUUGUAGAUGGAAAGCCCUUGGCAGCGAAUAGUGAUGG [Theophylline B K4 22] | 0.44 | 0.398 | 0.465 | 0.21 | 0.41 |
| GUAGACGUGCCUUCAGUGAUGUUGAAGGAUACCAGAUGUUACCACAUCCCUUGGCAGCCUUGGGAUAACAGUGAGUCGGUAUAUG [Ontierso] | 0.255 | 0.2 | 0.297 | 0.253 | 0.247 |
| CCAUCGCUAUUCGAUACCAGCUACUUAGUGAUGUUAAGUUUUUACCCACUGUAGGUGGGAAGCCCUUGGCAGCGAAUAGUGAUGG [Theophylline B K4 27] | 0.24 | 0.203 | 0.239 | 0.151 | 0.209 |
| GGCAUCCAUGGACAUAGUGAUGUUAUGUACCGAGGACCGGUACGGCCGCCACUCGGCCAUGGAUGCCGCAAUCGGAAACGAUUGC | 0.868 | 0.558 | 0.885 | 0.667 | 0.29 |
| ACAUCGGUUGAGAGUGAUGUUCCUUGUGUUCGAGGACCGGUACGGCCGCCACUCGGGUAGAAAAUAACAGAUGUGUUUCAUUUUU [BDazzled - #17 SS Tryptophan A] | 0.18 | 0.0932 | 0.141 | 0.277 | 0.271 |
| GGACAACUAUGUCCCAUACAAACAAGAGAUACCAGCCAUCAUAGAGGCCCUUGGCAGCUCAUAUAAUCCAGUGAUGUUGGAUUUC [Atgebeus] | 0.165 | 0.215 | 0.179 | 0.149 | 0.148 |
| AGAGUACGAAAGUACUCCUCUACACACUGACGAGGACCGGUACGGCCGCCACUCGAGUUGAGUGAUGUUCGAUAGUGUGUAGAGA [Omei KL Tryp A SS C v3] | 0.213 | 0.0384 | 0.097 | 0.312 | 1.12 |
| GUACGCUGCUGAGUGAUGUUCAGCAAUCGCUAGGAUAUCGCUUUUGCGAGAAGGAGCGCAAUGAGGAAACUCGUUGUUAGUGUAC [FMN A 28] | 0.166 | 0.198 | 0.255 | 0.204 | 0.207 |
| GGUAGCUAGGCAGGAUAUAGCUAGUGGAGUGAUGUUCCACCAUACACGAGUGAUGUUCGUAACCUGCUAGAAGGGCCUAGCUACC | 0.114 | 0.125 | 0.144 | 0.135 | 0.138 |
| GAUAGUUAGAGAGAUACCAGCGAUACCUAGAUGGAAAGUGAUGUUCGCCAUCAAUUGCACCGCCCUUGGCAGCUCUCUCUUUGCU [theeternabot_exclusion_KL_Theo_B_37] | 0.995 | 0.763 | 1.17 | 0.974 | 0.959 |
| AAACGUUGGUGCGAUACCAGCUGAUCGGAAACGAUCUUGCUGGAGUGAUGUUCCAGGAAAAGCCCUUGGCAGCGCACCGACGAAA [MAT - Same State Theophlline B - Mod of Eli - D26] | 0.95 | 0.659 | 1.06 | 0.869 | 0.927 |
| CGCUUUGCGUCCGGUAGUGAUGUUACCAAGCGAGGACCGGUACGGCCGCCACUCGAGUGACAGACGUACUGGUAUCACCCGCUUU | 0.223 | 0.229 | 0.248 | 0.235 | 0.208 |
| CAAAUGUUGUCAGGAUAUGAGCGCAGUGAUGUUGCGGUUGUAUUUAUGACUGGAGCAGCGUAAGCCUCAGAAGGGACAAGUUGCC [Qubioran] | 0.167 | 0.0922 | 0.106 | 0.0849 | 0.0993 |
| AGCUGUAGCAGAAGGAGCGACAGUUAUUCUGAUAGUACUCUGAGUGAUGUUCAGAACGACUGUCAGGUAGGUCGCUGUUACAGCU [Arg B Ex t8b] | 0.166 | 0.167 | 0.169 | 0.143 | 0.162 |
| CAUACGCAUGGAGGAUAUGAGAUUUCUCAUAUUAUUUAAUAUUCUCAGUGAUGUUGGGAUUUAAACUCAGAAGGCCAUGUGUAUG [Ex FMN B 7] | 0.259 | 0.159 | 0.159 | 0.234 | 0.169 |
| GGCGGCCGCGCGCAAGCGCGGCCGGCCGAUACCAGCGCGACGGCGCGCCCUUGGCAGCGGCGCCGAGUGAUGUUCGGCCUGCCGG [#2 Same State - Theophylline A Attempt #16 (HarryS)] | 0.376 | 0.447 | 0.585 | 0.454 | 0.482 |
| UCCUUUUUUGCCAGUGAUGUUGGACAGGAAGGAGCGGGCAUAAGCCCAGGUAGGUCGCCUGUCAACUUUCUUAUAGCCCUAAGGU [Edveza] | 0.271 | 0.226 | 0.236 | 0.21 | 0.245 |

Source: the supplement of paper PMC9170038
